Reference: the supplement of paper PMC9112550, “Optimization of the antimicrobial peptide Bac7 by deep mutational scanning” (BMC Biology, 2022)

System: Escherichia coli TOP10
Assay: shrunken log2 fold change of peptide-encoding DNA abundance (4.5 h post-induction vs induction); higher = less antimicrobial activity (less host growth inhibition)
Settings: time post-induction: 4.5 h; library: site-saturation at positions 5, 18, 19, 20
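Further: peptides expressed intracellularly from a pBAD plasmid library in pooled LB shake-flask culture, induced with 0.3% L-arabinose, DNA abundance read by NGS, three biological replicates, DESeq2 with apeglm shrinkage.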

Row | Sequence | shrunken log2 fold change
1 | RRIRQRPPRLPRPRPRPENNPRP | -0.331
2 | RRIRQRPPRLPRPRPRPENPPRP | 0.0317
3 | RRIRQRPPRLPRPRPRPEPCPRP | -0.0944
4 | RRIRQRPPRLPRPRPRPEPIPRP | 0.047
5 | RRIRQRPPRLPRPRPRPEQVPRP | 0.107
6 | RRIRQRPPRLPRPRPRPERIPRP | -0.328
7 | RRIRQRPPRLPRPRPRPERLPRP | -0.0028
8 | RRIRQRPPRLPRPRPRPERMPRP | 0.0275
9 | RRIRQRPPRLPRPRPRPETFPRP | -0.0643
10 | RRIRQRPPRLPRPRPRPETYPRP | -0.213
11 | RRIRQRPPRLPRPRPRPEWTPRP | -0.00618
12 | RRIRQRPPRLPRPRPRPEYHPRP | -0.141
13 | RRIRQRPPRLPRPRPRPFAIPRP | 0.00479
14 | RRIRQRPPRLPRPRPRPFDCPRP | -0.408
15 | RRIRQRPPRLPRPRPRPFDGPRP | -0.901
16 | RRIRQRPPRLPRPRPRPFEMPRP | -0.0512
17 | RRIRQRPPRLPRPRPRPFENPRP | -0.00804
18 | RRIRQRPPRLPRPRPRPFETPRP | -0.232
19 | RRIRQRPPRLPRPRPRPFFAPRP | 0.414
20 | RRIRQRPPRLPRPRPRPFFQPRP | -0.0889
21 | RRIRQRPPRLPRPRPRPFHWPRP | 0.0728
22 | RRIRQRPPRLPRPRPRPFICPRP | -0.0129
23 | RRIRQRPPRLPRPRPRPFKDPRP | -0.126
24 | RRIRQRPPRLPRPRPRPFLEPRP | -0.155
25 | RRIRQRPPRLPRPRPRPFLKPRP | -0.939

Row | Sequence | shrunken log2 fold change
26 | RRIRQRPPRLPRPRPRPFLPPRP | -0.0691
27 | RRIRQRPPRLPRPRPRPFMLPRP | -0.278
28 | RRIRQRPPRLPRPRPRPFMNPRP | -0.148
29 | RRIRQRPPRLPRPRPRPFMPPRP | -0.216
30 | RRIRQRPPRLPRPRPRPFNLPRP | -0.649
31 | RRIRQRPPRLPRPRPRPFNVPRP | -0.375
32 | RRIRQRPPRLPRPRPRPFSLPRP | 0.14
33 | RRIRQRPPRLPRPRPRPFTCPRP | -0.158
34 | RRIRQRPPRLPRPRPRPFWQPRP | 0.213
35 | RRIRQRPPRLPRPRPRPFWSPRP | -0.00402
36 | RRIRQRPPRLPRPRPRPFWVPRP | 0.176
37 | RRIRQRPPRLPRPRPRPFYKPRP | -0.118
38 | RRIRQRPPRLPRPRPRPFYLPRP | -0.437
39 | RRIRQRPPRLPRPRPRPGALPRP | 0.0446
40 | RRIRQRPPRLPRPRPRPGARPRP | 0.451
41 | RRIRQRPPRLPRPRPRPGCQPRP | -0.103
42 | RRIRQRPPRLPRPRPRPGFYPRP | 0.116
43 | RRIRQRPPRLPRPRPRPGGGPRP | 0.748
44 | RRIRQRPPRLPRPRPRPGGMPRP | 0.2
45 | RRIRQRPPRLPRPRPRPGKDPRP | -0.115
46 | RRIRQRPPRLPRPRPRPGKFPRP | -0.148
47 | RRIRQRPPRLPRPRPRPGLEPRP | 0.134
48 | RRIRQRPPRLPRPRPRPGLPPRP | 0.242
49 | RRIRQRPPRLPRPRPRPGMVPRP | 0.0259
50 | RRIRQRPPRLPRPRPRPGNKPRP | -0.596

Row | Sequence | shrunken log2 fold change
51 | RRIRQRPPRLPRPRPRPGPPPRP | 0.462
52 | RRIRQRPPRLPRPRPRPGQFPRP | 0.121
53 | RRIRQRPPRLPRPRPRPGQKPRP | -0.00973
54 | RRIRQRPPRLPRPRPRPGQQPRP | -0.0212
55 | RRIRQRPPRLPRPRPRPGRGPRP | 0.333
56 | RRIRQRPPRLPRPRPRPGTPPRP | 0.000485
57 | RRIRQRPPRLPRPRPRPGTQPRP | -0.152
58 | RRIRQRPPRLPRPRPRPGTSPRP | -0.523
59 | RRIRQRPPRLPRPRPRPHAVPRP | -0.0835
60 | RRIRQRPPRLPRPRPRPHDQPRP | 0.00277
61 | RRIRQRPPRLPRPRPRPHELPRP | -0.00752
62 | RRIRQRPPRLPRPRPRPHLMPRP | 0.106
63 | RRIRQRPPRLPRPRPRPHMIPRP | -0.515
64 | RRIRQRPPRLPRPRPRPHNGPRP | -0.072
65 | RRIRQRPPRLPRPRPRPHNKPRP | -0.599
66 | RRIRQRPPRLPRPRPRPHNRPRP | -0.372
67 | RRIRQRPPRLPRPRPRPHNYPRP | -0.437
68 | RRIRQRPPRLPRPRPRPHPHPRP | -0.136
69 | RRIRQRPPRLPRPRPRPHPKPRP | -0.0646
70 | RRIRQRPPRLPRPRPRPHPRPRP | 0.575
71 | RRIRQRPPRLPRPRPRPHQLPRP | 0.142
72 | RRIRQRPPRLPRPRPRPHQPPRP | 0.00524
73 | RRIRQRPPRLPRPRPRPHRYPRP | -0.812
74 | RRIRQRPPRLPRPRPRPHSFPRP | -0.00144
75 | RRIRQRPPRLPRPRPRPHTIPRP | -0.412

Row | Sequence | shrunken log2 fold change
76 | RRIRQRPPRLPRPRPRPHVFPRP | -0.000919
77 | RRIRQRPPRLPRPRPRPHVYPRP | -0.414
78 | RRIRQRPPRLPRPRPRPHYFPRP | -0.239
79 | RRIRQRPPRLPRPRPRPIACPRP | -0.238
80 | RRIRQRPPRLPRPRPRPIAMPRP | -0.0149
81 | RRIRQRPPRLPRPRPRPICFPRP | -0.0372
82 | RRIRQRPPRLPRPRPRPICPPRP | 0.128
83 | RRIRQRPPRLPRPRPRPICQPRP | -0.153
84 | RRIRQRPPRLPRPRPRPIDDPRP | -0.112
85 | RRIRQRPPRLPRPRPRPIDLPRP | -0.194
86 | RRIRQRPPRLPRPRPRPIEMPRP | -0.0847
87 | RRIRQRPPRLPRPRPRPIEVPRP | 0.0112
88 | RRIRQRPPRLPRPRPRPIEYPRP | -0.0135
89 | RRIRQRPPRLPRPRPRPIFEPRP | -0.224
90 | RRIRQRPPRLPRPRPRPIFNPRP | -0.365
91 | RRIRQRPPRLPRPRPRPIFQPRP | -0.269
92 | RRIRQRPPRLPRPRPRPIFSPRP | 0.0638
93 | RRIRQRPPRLPRPRPRPIGIPRP | -0.245
94 | RRIRQRPPRLPRPRPRPIHAPRP | -0.0062
95 | RRIRQRPPRLPRPRPRPIHGPRP | -0.0264
96 | RRIRQRPPRLPRPRPRPIIHPRP | -0.054
97 | RRIRQRPPRLPRPRPRPIIMPRP | -0.25
98 | RRIRQRPPRLPRPRPRPIKDPRP | -0.034
99 | RRIRQRPPRLPRPRPRPIKRPRP | -0.354
100 | RRIRQRPPRLPRPRPRPIKSPRP | -0.117

Row | Sequence | shrunken log2 fold change
101 | RRIRQRPPRLPRPRPRPILKPRP | 0.14
102 | RRIRQRPPRLPRPRPRPIMVPRP | -0.0523
103 | RRIRQRPPRLPRPRPRPIMWPRP | 0.0394
104 | RRIRQRPPRLPRPRPRPINTPRP | -0.129
105 | RRIRQRPPRLPRPRPRPIQGPRP | -0.0863
106 | RRIRQRPPRLPRPRPRPISEPRP | 0.0446
107 | RRIRQRPPRLPRPRPRPISNPRP | -0.223
108 | RRIRQRPPRLPRPRPRPITFPRP | -0.11
109 | RRIRQRPPRLPRPRPRPIVQPRP | -0.0505
110 | RRIRQRPPRLPRPRPRPIWHPRP | -0.204
111 | RRIRQRPPRLPRPRPRPIYRPRP | -0.0223
112 | RRIRQRPPRLPRPRPRPKDWPRP | 0.377
113 | RRIRQRPPRLPRPRPRPKEDPRP | -0.0372
114 | RRIRQRPPRLPRPRPRPKFIPRP | -0.0852
115 | RRIRQRPPRLPRPRPRPKFWPRP | 0.104
116 | RRIRQRPPRLPRPRPRPKGDPRP | 0.00911
117 | RRIRQRPPRLPRPRPRPKGKPRP | -0.155
118 | RRIRQRPPRLPRPRPRPKIPPRP | -0.0111
119 | RRIRQRPPRLPRPRPRPKLEPRP | 0.563
120 | RRIRQRPPRLPRPRPRPKLHPRP | -0.201
121 | RRIRQRPPRLPRPRPRPKMTPRP | 0.00734
122 | RRIRQRPPRLPRPRPRPKMYPRP | -0.544
123 | RRIRQRPPRLPRPRPRPKNKPRP | -0.29
124 | RRIRQRPPRLPRPRPRPKQCPRP | -0.288
125 | RRIRQRPPRLPRPRPRPKRCPRP | 0.129

Row | Sequence | shrunken log2 fold change
126 | RRIRQRPPRLPRPRPRPKRPPRP | 0.135
127 | RRIRQRPPRLPRPRPRPKSCPRP | 0.000945
128 | RRIRQRPPRLPRPRPRPKSEPRP | -0.0211
129 | RRIRQRPPRLPRPRPRPKSHPRP | -0.0261
130 | RRIRQRPPRLPRPRPRPKSPPRP | -0.089
131 | RRIRQRPPRLPRPRPRPKTRPRP | 0.247
132 | RRIRQRPPRLPRPRPRPKWDPRP | -0.0672
133 | RRIRQRPPRLPRPRPRPKYPPRP | 0.0386
134 | RRIRQRPPRLPRPRPRPLAAPRP | 0.395
135 | RRIRQRPPRLPRPRPRPLADPRP | 0.194
136 | RRIRQRPPRLPRPRPRPLANPRP | -0.00739
137 | RRIRQRPPRLPRPRPRPLAPPRP | 0.38
138 | RRIRQRPPRLPRPRPRPLASPRP | 0.00224
139 | RRIRQRPPRLPRPRPRPLCEPRP | -0.0868
140 | RRIRQRPPRLPRPRPRPLCMPRP | -0.37
141 | RRIRQRPPRLPRPRPRPLCSPRP | -0.0385
142 | RRIRQRPPRLPRPRPRPLDKPRP | 2.19
143 | RRIRQRPPRLPRPRPRPLEIPRP | -0.106
144 | RRIRQRPPRLPRPRPRPLFTPRP | -0.426
145 | RRIRQRPPRLPRPRPRPLGAPRP | 0.285
146 | RRIRQRPPRLPRPRPRPLGIPRP | -0.381
147 | RRIRQRPPRLPRPRPRPLHFPRP | -0.0222
148 | RRIRQRPPRLPRPRPRPLITPRP | -0.281
149 | RRIRQRPPRLPRPRPRPLKWPRP | 0.0646
150 | RRIRQRPPRLPRPRPRPLNSPRP | -0.0233
